Assay results as given in US20040175720A1 (NEW YORK UNIVERSITY, published 2004).

Key:
[1] = molecular target: Human NRC expressed from pEX-NRC in HeLa cells (human, UniProt Q14686 1-2063); assay: cell-based or functional assay
[2] = molecular target: T1, B42-NIF-1 (full-length), B42 activation domain fusion expressed from pJG4-5 in yeast (human, UniProt Q9H4Z2 1-1342); assay: yeast two-hybrid, B42-NIF-1 (full-length) against LexA-LBD, β-galactosidase
T1 construct: also called NIF-1 expressed as a B42-fusion
T1 sequence: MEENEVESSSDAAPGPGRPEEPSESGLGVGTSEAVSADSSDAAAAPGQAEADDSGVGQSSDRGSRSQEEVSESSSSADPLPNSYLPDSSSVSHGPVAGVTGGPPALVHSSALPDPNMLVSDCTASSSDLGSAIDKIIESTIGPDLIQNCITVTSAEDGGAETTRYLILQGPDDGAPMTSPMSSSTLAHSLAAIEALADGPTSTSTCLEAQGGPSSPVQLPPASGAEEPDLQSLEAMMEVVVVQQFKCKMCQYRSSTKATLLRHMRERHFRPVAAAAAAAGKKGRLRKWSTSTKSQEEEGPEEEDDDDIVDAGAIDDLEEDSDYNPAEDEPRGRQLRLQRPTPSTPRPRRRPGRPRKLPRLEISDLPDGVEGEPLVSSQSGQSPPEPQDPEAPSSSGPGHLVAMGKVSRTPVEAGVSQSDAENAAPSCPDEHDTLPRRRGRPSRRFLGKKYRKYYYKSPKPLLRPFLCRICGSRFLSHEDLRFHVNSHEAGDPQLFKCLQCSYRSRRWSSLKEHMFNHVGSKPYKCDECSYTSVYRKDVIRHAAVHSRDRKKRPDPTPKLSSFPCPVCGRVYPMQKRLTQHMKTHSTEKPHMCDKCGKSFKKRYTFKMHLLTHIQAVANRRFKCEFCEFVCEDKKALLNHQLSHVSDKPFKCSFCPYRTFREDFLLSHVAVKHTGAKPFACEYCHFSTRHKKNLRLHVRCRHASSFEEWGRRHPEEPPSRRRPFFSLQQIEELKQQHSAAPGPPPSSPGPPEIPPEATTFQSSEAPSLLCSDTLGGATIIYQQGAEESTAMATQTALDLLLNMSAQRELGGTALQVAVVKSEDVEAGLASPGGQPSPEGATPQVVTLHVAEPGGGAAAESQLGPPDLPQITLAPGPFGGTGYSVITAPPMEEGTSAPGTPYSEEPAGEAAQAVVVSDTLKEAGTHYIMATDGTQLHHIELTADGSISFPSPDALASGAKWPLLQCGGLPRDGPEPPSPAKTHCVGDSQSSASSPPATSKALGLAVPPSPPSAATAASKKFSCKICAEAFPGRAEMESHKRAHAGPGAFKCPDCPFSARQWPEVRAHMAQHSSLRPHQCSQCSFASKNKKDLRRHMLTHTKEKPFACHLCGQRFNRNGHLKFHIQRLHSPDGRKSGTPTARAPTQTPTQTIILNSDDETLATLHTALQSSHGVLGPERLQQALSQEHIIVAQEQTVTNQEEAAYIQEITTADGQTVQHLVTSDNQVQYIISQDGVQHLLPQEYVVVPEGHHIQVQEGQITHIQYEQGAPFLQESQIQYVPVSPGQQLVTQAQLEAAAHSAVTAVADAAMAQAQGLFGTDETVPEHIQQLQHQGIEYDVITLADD
Experimental: To examine for this possibility, the interaction of B42-NIF-1 (full-length), conditionally expressed from pJG4-5, was studied with LexA fusions of nuclear receptor LBDs (cTRα, ERa, RXRα, GR, RARα, and PPARα) in yeast, as shown in FIG. 7. In addition, a LexA-fusion of full-length cTRα was also tested against B42-NIF-1 (full-length) and gave similar results as with the cTRα LBD. […] To document that the LexA-LBD fusions were expressed and responded to ligand in yeast, similar studies were carried out with B42-NRC.

Sequence of Human NRC expressed from pEX-NRC in HeLa cells (Q14686 whole entry, the tested form may be a part): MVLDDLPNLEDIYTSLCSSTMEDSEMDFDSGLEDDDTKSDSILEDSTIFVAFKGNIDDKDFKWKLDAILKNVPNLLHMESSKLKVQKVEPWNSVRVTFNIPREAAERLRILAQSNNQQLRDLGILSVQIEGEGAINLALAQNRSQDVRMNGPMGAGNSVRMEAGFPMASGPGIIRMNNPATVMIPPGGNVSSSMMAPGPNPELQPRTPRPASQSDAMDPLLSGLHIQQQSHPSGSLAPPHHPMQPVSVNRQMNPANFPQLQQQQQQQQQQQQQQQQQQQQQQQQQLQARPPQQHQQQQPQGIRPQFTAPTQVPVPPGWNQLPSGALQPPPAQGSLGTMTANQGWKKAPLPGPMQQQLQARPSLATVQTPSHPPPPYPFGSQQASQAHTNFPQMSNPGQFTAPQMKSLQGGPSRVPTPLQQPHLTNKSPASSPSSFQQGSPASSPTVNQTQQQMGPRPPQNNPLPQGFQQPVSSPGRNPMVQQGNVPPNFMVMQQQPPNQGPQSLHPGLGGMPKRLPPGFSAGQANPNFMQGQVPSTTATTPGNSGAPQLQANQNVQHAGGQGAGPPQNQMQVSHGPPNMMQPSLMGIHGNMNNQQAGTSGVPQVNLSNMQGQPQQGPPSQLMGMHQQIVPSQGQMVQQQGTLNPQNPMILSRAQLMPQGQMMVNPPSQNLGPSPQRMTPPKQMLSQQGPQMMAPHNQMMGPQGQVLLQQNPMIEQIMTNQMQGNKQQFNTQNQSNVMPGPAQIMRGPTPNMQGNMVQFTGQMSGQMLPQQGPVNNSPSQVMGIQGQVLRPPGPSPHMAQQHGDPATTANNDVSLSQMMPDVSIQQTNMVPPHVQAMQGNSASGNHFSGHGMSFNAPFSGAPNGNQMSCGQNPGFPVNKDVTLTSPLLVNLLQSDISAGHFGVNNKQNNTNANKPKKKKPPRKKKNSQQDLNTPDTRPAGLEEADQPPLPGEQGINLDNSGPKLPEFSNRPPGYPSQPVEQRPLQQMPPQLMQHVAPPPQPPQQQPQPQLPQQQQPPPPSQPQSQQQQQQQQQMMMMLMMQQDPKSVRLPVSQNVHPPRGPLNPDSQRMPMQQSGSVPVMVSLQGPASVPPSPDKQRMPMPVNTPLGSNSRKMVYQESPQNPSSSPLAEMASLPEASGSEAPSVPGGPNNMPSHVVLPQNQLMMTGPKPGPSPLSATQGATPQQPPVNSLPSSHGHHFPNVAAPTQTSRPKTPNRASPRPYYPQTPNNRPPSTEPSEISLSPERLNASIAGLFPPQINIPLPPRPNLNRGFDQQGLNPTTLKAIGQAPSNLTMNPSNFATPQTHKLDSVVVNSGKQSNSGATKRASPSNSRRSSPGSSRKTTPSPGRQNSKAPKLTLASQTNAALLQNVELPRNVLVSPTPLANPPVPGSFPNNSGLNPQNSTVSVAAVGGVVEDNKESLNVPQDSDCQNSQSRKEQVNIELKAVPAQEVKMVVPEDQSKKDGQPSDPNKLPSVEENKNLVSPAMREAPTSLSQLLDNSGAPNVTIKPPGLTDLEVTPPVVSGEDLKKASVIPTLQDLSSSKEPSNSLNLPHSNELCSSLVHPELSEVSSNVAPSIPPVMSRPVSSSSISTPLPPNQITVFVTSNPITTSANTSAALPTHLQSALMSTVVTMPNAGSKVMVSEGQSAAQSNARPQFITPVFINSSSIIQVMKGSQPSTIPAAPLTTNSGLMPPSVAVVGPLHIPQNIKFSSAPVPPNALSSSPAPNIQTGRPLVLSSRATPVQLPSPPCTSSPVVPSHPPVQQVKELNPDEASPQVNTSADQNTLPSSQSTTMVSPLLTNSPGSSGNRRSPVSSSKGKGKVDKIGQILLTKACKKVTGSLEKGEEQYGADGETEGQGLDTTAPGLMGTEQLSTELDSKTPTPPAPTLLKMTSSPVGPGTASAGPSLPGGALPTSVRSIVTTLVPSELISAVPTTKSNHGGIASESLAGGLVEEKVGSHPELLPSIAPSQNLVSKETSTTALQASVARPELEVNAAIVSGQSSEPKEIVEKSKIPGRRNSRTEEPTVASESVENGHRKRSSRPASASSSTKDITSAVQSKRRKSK

B1: NIF-1 (NRC Interacting Factor-1), full-length human, untagged (other)
chain: MEENEVESSSDAAPGPGRPEEPSESGLGVGTSEAVSADSSDAAAAPGQAEADDSGVGQSSDRGSRSQEEVSESSSSADPLPNSYLPDSSSVSHGPVAGVTGGPPALVHSSALPDPNMLVSDCTASSSDLGSAIDKIIESTIGPDLIQNCITVTSAEDGGAETTRYLILQGPDDGAPMTSPMSSSTLAHSLAAIEALADGPTSTSTCLEAQGGPSSPVQLPPASGAEEPDLQSLEAMMEVVVVQQFKCKMCQYRSSTKATLLRHMRERHFRPVAAAAAAAGKKGRLRKWSTSTKSQEEEGPEEEDDDDIVDAGAIDDLEEDSDYNPAEDEPRGRQLRLQRPTPSTPRPRRRPGRPRKLPRLEISDLPDGVEGEPLVSSQSGQSPPEPQDPEAPSSSGPGHLVAMGKVSRTPVEAGVSQSDAENAAPSCPDEHDTLPRRRGRPSRRFLGKKYRKYYYKSPKPLLRPFLCRICGSRFLSHEDLRFHVNSHEAGDPQLFKCLQCSYRSRRWSSLKEHMFNHVGSKPYKCDECSYTSVYRKDVIRHAAVHSRDRKKRPDPTPKLSSFPCPVCGRVYPMQKRLTQHMKTHSTEKPHMCDKCGKSFKKRYTFKMHLLTHIQAVANRRFKCEFCEFVCEDKKALLNHQLSHVSDKPFKCSFCPYRTFREDFLLSHVAVKHTGAKPFACEYCHFSTRHKKNLRLHVRCRHASSFEEWGRRHPEEPPSRRRPFFSLQQIEELKQQHSAAPGPPPSSPGPPEIPPEATTFQSSEAPSLLCSDTLGGATIIYQQGAEESTAMATQTALDLLLNMSAQRELGGTALQVAVVKSEDVEAGLASPGGQPSPEGATPQVVTLHVAEPGGGAAAESQLGPPDLPQITLAPGPFGGTGYSVITAPPMEEGTSAPGTPYSEEPAGEAAQAVVVSDTLKEAGTHYIMATDGTQLHHIELTADGSISFPSPDALASGAKWPLLQCGGLPRDGPEPPSPAKTHCVGDSQSSASSPPATSKALGLAVPPSPPSAATAASKKFSCKICAEAFPGRAEMESHKRAHAGPGAFKCPDCPFSARQWPEVRAHMAQHSSLRPHQCSQCSFASKNKKDLRRHMLTHTKEKPFACHLCGQRFNRNGHLKFHIQRLHSPDGRKSGTPTARAPTQTPTQTIILNSDDETLATLHTALQSSHGVLGPERLQQALSQEHIIVAQEQTVTNQEEAAYIQEITTADGQTVQHLVTSDNQVQYIISQDGVQHLLPQEYVVVPEGHHIQVQEGQITHIQYEQGAPFLQESQIQYVPVSPGQQLVTQAQLEAAAHSAVTAVADAAMAQAQGLFGTDETVPEHIQQLQHQGIEYDVITLADD
modifications: ^35S-L-methionine label in the in vitro binding assay
activity of the -73 collagenase-CAT reporter gene in HeLa cells (fold increase) [1]: 12 fold

B2: LexA-hRARα LBD (LexA fusion of the ligand binding domain of hRARα) (receptor, UniProt P0A7C2 1-202, looked up)
chain: MKALTARQQEVFDLIRDHISQTGMPPTRAEIAQRLGFRSPNAAEEHLKALARKGVIEIVSGASRGIRLLQEEEEGLPLVGRVAAGEPLLAQQHIEGHYQVDPSLFKPNADFLLRVSGMSMKDIGIMDGDLLAVHKTQDVRNGQVVVARIDDEVTVKRLKKQGNKVELLPENSEFKPIVVDLRQQSFTIEGLAVGVIRNGDWLSKESVRNDRNKKKKEVPKPECSESYTLTPEVGELIEKVRKAHQETFPALCQLGKYTTNNSSEQRVSLDIDLWDKFSELSTKCIIKTVEFAKQLPGFTTLTIADQITLLKAACLDILILRICTRYTPEQDTMTFSDGLTLNRTQMHNAGFGPLTDLVFAFANQLLPLEMDDAETGLLSAICLICGDRQDLEQPDRVDMLQEPLLEALKVYVRKRRPSRPHMFPKMLMKITDLRSISAKGAERVITLKMEIPGSMPPLIQEMLENSEGLDTLSGQPGGGGRDGGGLAPPPGSCSPSLSPSSNRSSPATHSP
notes: domain: LexA DBD;domain: LBD
binding result [2]: no binding

B3: LexA-hPPARα LBD (LexA fusion of the ligand binding domain of hPPARα) (receptor, UniProt P0A7C2 1-202, looked up)
chain: MKALTARQQEVFDLIRDHISQTGMPPTRAEIAQRLGFRSPNAAEEHLKALARKGVIEIVSGASRGIRLLQEEEEGLPLVGRVAAGEPLLAQQHIEGHYQVDPSLFKPNADFLLRVSGMSMKDIGIMDGDLLAVHKTQDVRNGQVVVARIDDEVTVKRLKKQGNKVELLPENSEFKPIVVDLRQQSFTIEGLAVGVIRNGDWLSHNAIRFGRMPRSEKAKLKAEILTCEHDIEDSETADLKSLAKRIYEAYLKNFNMNKVKARVILSGKASNNPPFVIHDMETLCMAEKTLVAKLVANGIQNKEAEVRIFHCCQCTSVETVTELTEFAKAIPGFANLDLNDQVTLLKYGVYEAIFAMLSSVMNKDGMLVAYGNGFITREFLKSLRKPFCDIMEPKFDFAMKFNALELDDSDISLFVAAIICCGDRPGLLNVGHIEKMQEGIVHVLRLHLQSNHPDDIFLFPKLLQKMADLRQLVTEHAQLVQIIKKTESDAALHPLLQEIYRDMY
notes: domain: LexA DBD;domain: LBD
binding result [2]: no binding

B4: LexA-hRXRα LBD (LexA fusion of the ligand binding domain of hRXRα) (receptor, UniProt P0A7C2 1-202, looked up)
chain: MKALTARQQEVFDLIRDHISQTGMPPTRAEIAQRLGFRSPNAAEEHLKALARKGVIEIVSGASRGIRLLQEEEEGLPLVGRVAAGEPLLAQQHIEGHYQVDPSLFKPNADFLLRVSGMSMKDIGIMDGDLLAVHKTQDVRNGQVVVARIDDEVTVKRLKKQGNKVELLPENSEFKPIVVDLRQQSFTIEGLAVGVIRNGDWLMGMKREAVQEERQRGKDRNENEVESTSSANEDMPVERILEAELAVEPKTETYVEANMGLNPSSPNDPVTNICQAADKQLFTLVEWAKRIPHFSELPLDDQVILLRAGWNELLIASFSHRSIAVKDGILLATGLHVHRNSAHSAGVGAIFDRVLTELVSKMRDMQMDKTELGCLRAIVLFNPDSKGLSNPAEVEALREKVYASLEAYCKHKYPEQPGRFAKLLLRLPALRSIGLKCLEHLFFFKLIGDTPIDTFLMEMLEAPHQMT
notes: domain: LexA DBD;domain: LBD
binding result [2]: no binding

B5: LexA-human ERα-LBD (LexA fusion of the ligand binding domain of hERα) (receptor, UniProt P0A7C2 1-202, looked up)
chain: MKALTARQQEVFDLIRDHISQTGMPPTRAEIAQRLGFRSPNAAEEHLKALARKGVIEIVSGASRGIRLLQEEEEGLPLVGRVAAGEPLLAQQHIEGHYQVDPSLFKPNADFLLRVSGMSMKDIGIMDGDLLAVHKTQDVRNGQVVVARIDDEVTVKRLKKQGNKVELLPENSEFKPIVVDLRQQSFTIEGLAVGVIRNGDWLSAGDMRAANLWPSPLMIKRSKKNSLALSLTADQMVSALLDAEPPILYSEYDPTRPFSEASMMGLLTNLADRELVHMINWAKRVPGFVDLTLHDQVHLLECAWLEILMIGLVWRSMEHPGKLLFAPNLLLDRNQGKCVEGMVEIFDMLLATSSRFRMMNLQGEEFVCLKSIILLNSGVYTFLSSTLKSLEEKDHIHRVLDKITDTLIHLMAKAGLTLQQQHQRLAQLLLILSHIRHMSNKGMEHLYSMKCKNVVPLYDLLLEMLDAHRLHAPTSRGGASVEETDQSHLATAGSTSSHSLQKYYITGEAEGFPATV
notes: domain: LexA DBD;domain: LBD; also called hERa; ERa
binding result [2]: no binding

B6: LexA-hGR LBD (LexA fusion of the ligand binding domain of hGR) (receptor, UniProt P0A7C2 1-202, looked up)
chain: MKALTARQQEVFDLIRDHISQTGMPPTRAEIAQRLGFRSPNAAEEHLKALARKGVIEIVSGASRGIRLLQEEEEGLPLVGRVAAGEPLLAQQHIEGHYQVDPSLFKPNADFLLRVSGMSMKDIGIMDGDLLAVHKTQDVRNGQVVVARIDDEVTVKRLKKQGNKVELLPENSEFKPIVVDLRQQSFTIEGLAVGVIRNGDWLGMNLEARKTKKKIKGIQQATTGVSQETSENPGNKTIVPATLPQLTPTLVSLLEVIEPEVLYAGYDSSVPDSTWRIMTTLNMLGGRQVIAAVKWAKAIPGFRNLHLDDQMTLLQYSWMFLMAFALGWRSYRQSSANLLCFAPDLIINEQRMTLPCMYDQCKHMLYVSSELHRLQVSYEEYLCMKTLLLLSSVPKDGLKSQELFDEIRMTYIKELGKAIVKREGNSSQNWQRFYQLTKLLDSMHEVVENLLNYCFQTFLDKTMSIEFPEMLAEIITNQIPKYSNGNIKKLLFHQK
notes: domain: LexA DBD;domain: LBD
binding result [2]: no binding

B7: LexA-cTRα LBD (LexA fusion of the ligand binding domain of cTRα) (receptor, UniProt P0A7C2 1-202, looked up)
chain: MKALTARQQEVFDLIRDHISQTGMPPTRAEIAQRLGFRSPNAAEEHLKALARKGVIEIVSGASRGIRLLQEEEEGLPLVGRVAAGEPLLAQQHIEGHYQVDPSLFKPNADFLLRVSGMSMKDIGIMDGDLLAVHKTQDVRNGQVVVARIDDEVTVKRLKKQGNKVELLPENSEFKPIVVDLRQQSFTIEGLAVGVIRNGDWLMDLVLDDSKRVAKRKLIEENRERRRKEEMIKSLQHRPSPSAEEWELIHVVTEAHRSTNAQGSHWKQKRKFLPEDIGQSPMASMPDGDKVDLEAFSEFTKIITPAITRVVDFAKKLPMFSELPCEDQIILLKGCCMEIMSLRAAVRYDPESETLTLSGEMAVKREQLKNGGLGVVSDAIFDLGKSLSAFNLDDTEVALLQAVLLMSSDRTGLICVDKIEKCQETYLLAFEHYINYRKHNIPHFWPKLLMKVTDLRMIGACHASRFLHMKVECPTELFPPLFLEVFEDQEV
notes: domain: LexA DBD;domain: LBD; also called cTRa
binding result [2]: no binding
